Values of other authors, collected in publication PMC3234256.

Molecular target: Lys73 (UniProt position 71, MMSTFKVLLCG)
Assay: NMR

Question: For “TEM-1 beta-lactamase (class A) (Escherichia coli)”, which pKa is on record?
Answer: above 10
